What was measured:
[1] = target: T1, hIGF-1R-Fc mutant SD103 (D461A, V462T) (human, UniProt P08069 31-933); assay: SPR, immobilized antibody
T1 construct: not shown: human IgG1 Fc, C-terminal tag
Description: Surface plasmon resonance (SPR) experiments were performed on a Biacore 3000 instrument set to 25° C. […] The antibody sensorchip surfaces were prepared by injecting each antibody (diluted 100 μg/mL in 10 mM Acetate, pH 4.0) over EDC/NHS-activated sensorchip surfaces according to the standard protocol of the manufacturer. […] Both hIGF-1R-Fc and mIGF-1R-Fc proteins oligomerize due to the incorporation of two separate homodimeric regions (IGF-1R and IgG1-Fc). […] After, completion of the receptor-Fc loading step, flow rates were elevated to 5 μl/min. […] Dissociation was measured for 7 minutes after the antibody injections were complete. Finally, the flow rate was elevated to 30 μL/min and the chip surfaces were regenerated by 2×10 μL injections of 0.1 M glycine, pH 2.

[2] = target: T2, human IGF-1R on H322M non-small cell lung cancer cells (human, UniProt P08069 31-1367); assay: flow cytometry on H322M cells, anti-human Fab PE secondary (FIG. 55A)
T2 construct: Endogenous receptor of the tumor cell line; also called cell surface IGF-1R
Description: Cell lines were routinely cultured no greater than 20 passages. Flow cyotometric analysis of antibody binding to human cancer cells. Cells were lifted with cell dissociation buffer (Gibco catalog #13151-014), counted, washed and adjusted to 5×10⁶ cells/ml. Cells (2.5×10⁵; 50 uL) were added to each well of a 96-well round bottom plate (Costar #3799). Purified antibodies were tested at a starting concentration of 300 nM with serial half-log dilutions in FACS buffer. FACS buffer used throughout the assay was PBS (without Ca++/Mg++) containing 5% FBS. Samples were incubated on ice for 30 minutes, washed 3× with 200 uL FACS buffer and centrifuged at 1200 rpm for 3 minutes at 4° C. C2B8 (rituximab, IgG1) was used as a negative control. […] Samples were incubated for an additional 30 minutes on ice, shielded from light. Cells were washed as described above and resuspended in 100 μl FACS buffer containing propidium iodide (PI) for dead cell exclusion (BD Pharmingen, catalog# 51-66211E or 556463; use at 1:500 final in FACS buffer). Samples were run in triplicate using the FACSArray flow cytometer (Becton Dickinson) with 5000 live events collected per sample. Data analysis was performed using the GraphPad Prism version 5.0 software (GraphPad Software Inc., 11452 El Camino Real #215, San Diego, Calif. 92130). Results. […]

[3] = target: T3, hIGF-1R-Fc mutant SD004 (S210H, A211Q) (human, UniProt P08069 31-933); assay: SPR: receptor-Fc captured on M13-C06 chip, then M13-C06 Fab; relative to wild type
T3 construct: not shown: human IgG1 Fc, C-terminal tag
Description: (§1) After, completion of the receptor-Fc loading step, flow rates were elevated to 5 μl/min. […] At the end of each sensorgram, the flow rate was elevated to 30 μl/min and the chip surface was regenerated by 2×10 μL injections of 0.1 M glycine, pH 2.

[4] = target: T4, hIGF-1R-Fc mutant SD005 (A217T) (human, UniProt P08069 31-933); assay: as above
T4 construct: not shown: human IgG1 Fc, C-terminal tag
Description: as §1

[5] = target: T5, hIGF-1R-Fc mutant SD007 (N237G) (human, UniProt P08069 31-933); assay: as above
T5 construct: not shown: human IgG1 Fc, C-terminal tag
Description: as §1

[6] = target: T6, hIGF-1R-Fc mutant SD008 (S257F) (human, UniProt P08069 31-933); assay: as above
T6 construct: not shown: human IgG1 Fc, C-terminal tag
Description: as §1

[7] = target: T7, hIGF-1R-Fc mutant SD009 (E264K) (human, UniProt P08069 31-933); assay: as above
T7 construct: not shown: human IgG1 Fc, C-terminal tag
Description: as §1

[8] = target: T8, hIGF-1R-Fc mutant SD010 (G271D) (human, UniProt P08069 31-933); assay: as above
T8 construct: not shown: human IgG1 Fc, C-terminal tag
Description: as §1

[9] = target: T9, hIGF-1R-Fc mutant SD011 (G285S, S286T) (human, UniProt P08069 31-933); assay: as above
T9 construct: not shown: human IgG1 Fc, C-terminal tag
Description: as §1

[10] = target: T10, hIGF-1R-Fc mutant SD012 (E303G) (human, UniProt P08069 31-933); assay: as above
T10 construct: not shown: human IgG1 Fc, C-terminal tag
Description: as §1

[11] = target: T11, hIGF-1R-Fc mutant SD013 (D405K) (human, UniProt P08069 31-933); assay: as above
T11 construct: not shown: human IgG1 Fc, C-terminal tag
Description: as §1

[12] = target: T12, hIGF-1R-Fc mutant SD014 (K412A, A413Q) (human, UniProt P08069 31-933); assay: as above
T12 construct: not shown: human IgG1 Fc, C-terminal tag
Description: as §1

[13] = target: T13, hIGF-1R-Fc mutant SD016 (D531Q, V532N) (human, UniProt P08069 31-933); assay: as above
T13 construct: not shown: human IgG1 Fc, C-terminal tag
Description: as §1

[14] = target: T14, hIGF-1R-Fc mutant SD017 (I650S) (human, UniProt P08069 31-933); assay: as above
T14 construct: not shown: human IgG1 Fc, C-terminal tag
Description: as §1

T8 sequence (P08069 31-933 G301D): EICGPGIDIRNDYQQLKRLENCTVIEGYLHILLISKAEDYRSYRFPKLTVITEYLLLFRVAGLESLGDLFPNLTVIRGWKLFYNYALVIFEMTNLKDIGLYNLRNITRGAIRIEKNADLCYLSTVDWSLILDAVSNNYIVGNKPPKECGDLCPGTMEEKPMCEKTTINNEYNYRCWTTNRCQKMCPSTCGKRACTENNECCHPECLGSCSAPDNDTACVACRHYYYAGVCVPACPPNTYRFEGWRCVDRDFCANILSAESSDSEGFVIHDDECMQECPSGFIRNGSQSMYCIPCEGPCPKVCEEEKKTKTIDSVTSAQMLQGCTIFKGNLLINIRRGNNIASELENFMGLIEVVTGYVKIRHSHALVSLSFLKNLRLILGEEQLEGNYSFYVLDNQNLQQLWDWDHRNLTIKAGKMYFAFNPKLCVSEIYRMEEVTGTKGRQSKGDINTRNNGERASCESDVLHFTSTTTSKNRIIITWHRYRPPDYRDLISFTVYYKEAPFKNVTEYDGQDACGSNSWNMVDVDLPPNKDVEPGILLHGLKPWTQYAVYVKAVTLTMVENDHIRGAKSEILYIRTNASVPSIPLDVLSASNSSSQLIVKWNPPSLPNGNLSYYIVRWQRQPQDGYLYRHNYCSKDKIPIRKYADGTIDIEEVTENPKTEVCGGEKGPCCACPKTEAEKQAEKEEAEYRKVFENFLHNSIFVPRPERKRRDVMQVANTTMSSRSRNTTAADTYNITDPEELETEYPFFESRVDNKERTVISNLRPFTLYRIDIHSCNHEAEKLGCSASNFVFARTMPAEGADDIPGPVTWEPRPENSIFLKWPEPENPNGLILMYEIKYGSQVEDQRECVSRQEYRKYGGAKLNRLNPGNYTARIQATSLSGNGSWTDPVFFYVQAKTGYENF
T9 sequence (P08069 31-933 G315S/S316T): as the sequence (P08069 31-933 G301D) above, with D271G, G285S, S286T counted along it
T13 sequence (P08069 31-933 D561Q/V562N): as the sequence (P08069 31-933 G301D) above, with D271G, D531Q, V532N counted along it
T12 sequence (P08069 31-933 K442A/A443Q): as the sequence (P08069 31-933 G301D) above, with D271G, K412A, A413Q counted along it
T6 sequence (P08069 31-933 S287F): as the sequence (P08069 31-933 G301D) above, with S257F, D271G counted along it
T1 sequence (P08069 31-933 D491A/V492T): as the sequence (P08069 31-933 G301D) above, with D271G, D461A, V462T counted along it
T4 sequence (P08069 31-933 A247T): as the sequence (P08069 31-933 G301D) above, with A217T, D271G counted along it
T11 sequence (P08069 31-933 D435K): as the sequence (P08069 31-933 G301D) above, with D271G, D405K counted along it
T14 sequence (P08069 31-933 I680S): as the sequence (P08069 31-933 G301D) above, with D271G, I650S counted along it
T3 sequence (P08069 31-933 S240H/A241Q): as the sequence (P08069 31-933 G301D) above, with S210H, A211Q, D271G counted along it
T7 sequence (P08069 31-933 E294K): as the sequence (P08069 31-933 G301D) above, with E264K, D271G counted along it
T2 sequence (P08069 31-1367, stated change not applied): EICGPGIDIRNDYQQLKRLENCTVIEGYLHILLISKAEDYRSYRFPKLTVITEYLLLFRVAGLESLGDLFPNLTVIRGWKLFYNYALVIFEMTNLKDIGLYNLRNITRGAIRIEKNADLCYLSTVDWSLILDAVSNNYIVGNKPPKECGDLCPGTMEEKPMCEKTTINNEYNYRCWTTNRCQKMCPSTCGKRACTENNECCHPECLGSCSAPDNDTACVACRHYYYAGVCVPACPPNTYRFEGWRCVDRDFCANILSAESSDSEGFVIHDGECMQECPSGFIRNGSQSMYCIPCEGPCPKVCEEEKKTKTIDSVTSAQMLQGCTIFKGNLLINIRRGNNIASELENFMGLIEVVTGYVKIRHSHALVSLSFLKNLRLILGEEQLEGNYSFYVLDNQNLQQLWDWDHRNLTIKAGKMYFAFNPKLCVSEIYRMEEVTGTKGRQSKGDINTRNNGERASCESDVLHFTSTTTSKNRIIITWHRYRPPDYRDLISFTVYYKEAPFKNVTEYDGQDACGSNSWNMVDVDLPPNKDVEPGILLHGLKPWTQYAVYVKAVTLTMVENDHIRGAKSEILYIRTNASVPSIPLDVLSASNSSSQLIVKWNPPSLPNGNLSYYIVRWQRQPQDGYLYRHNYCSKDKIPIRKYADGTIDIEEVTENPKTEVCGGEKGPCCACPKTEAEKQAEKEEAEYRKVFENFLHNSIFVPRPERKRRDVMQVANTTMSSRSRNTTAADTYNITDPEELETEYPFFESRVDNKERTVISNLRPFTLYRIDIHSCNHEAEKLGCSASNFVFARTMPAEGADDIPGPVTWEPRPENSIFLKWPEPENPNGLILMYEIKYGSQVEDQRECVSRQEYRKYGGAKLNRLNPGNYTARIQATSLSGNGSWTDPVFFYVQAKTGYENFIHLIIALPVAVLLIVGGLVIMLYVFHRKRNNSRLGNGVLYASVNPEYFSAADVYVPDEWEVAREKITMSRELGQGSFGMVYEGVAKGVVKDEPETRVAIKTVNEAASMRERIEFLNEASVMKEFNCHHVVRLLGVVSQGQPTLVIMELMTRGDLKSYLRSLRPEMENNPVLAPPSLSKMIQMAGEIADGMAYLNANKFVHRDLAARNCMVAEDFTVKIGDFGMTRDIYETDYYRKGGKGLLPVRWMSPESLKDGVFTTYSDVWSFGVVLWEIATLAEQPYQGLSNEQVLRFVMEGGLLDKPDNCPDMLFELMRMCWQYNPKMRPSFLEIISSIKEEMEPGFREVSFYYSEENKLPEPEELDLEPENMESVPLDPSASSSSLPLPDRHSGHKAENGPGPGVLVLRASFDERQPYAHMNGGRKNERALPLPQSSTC
T5 sequence (P08069 31-933 N267G): as the sequence (P08069 31-933 G301D) above, with N237G, D271G counted along it
T10 sequence (P08069 31-933 E333G): as the sequence (P08069 31-933 G301D) above, with D271G, E303G counted along it

binding result [1] | EC50 [2] [pM] | Biacore Relative RUmax [3] | Biacore Relative RUmax [4] | Biacore Relative RUmax [5] | Biacore Relative RUmax [6] | Biacore Relative RUmax [7] | Biacore Relative RUmax [8] | Biacore Relative RUmax [9] | Biacore Relative RUmax [10] | Biacore Relative RUmax [11] | Biacore Relative RUmax [12] | Biacore Relative RUmax [13] | Biacore Relative RUmax [14] | Binder
no binding | 200 | – | – | – | – | – | – | – | – | – | – | – | – | M13-C06 antibody (antibody, V domains shown, Fully human full-length antibody (ATCC PTA-7444); also called M13.C06.G4.P.agly; M13-C06.G4P.agly) VH: EVQLLESGGGLVQPGGSLRLSCAASGFTFSIYRMQWVRQAPGKGLEWVSGISPSGGTTWYADSVKGRFTISRDNSKNTLYLQMNSLRAEDTAVYYCARWSGGSGYAFDIWGQGTMVTVSS VL: DIQMTQSPLSLSASVGDRVTITCQASRDIRNYLNWYQQKPGKAPKLLIYDASSLQTGVPSRFGGSGSGTDFSFTIGSLQPEDIATYYCQQFDSLPHTFGQGTKLEIK
– | – | 0.8 | 0.9 | 1.3 | 1.5 | 0.6 | 0.8 | 1.8 | 0.3 | 0.7 | 0.6 | 2 | 2 | M13-C06 Fab (Fab, V domains shown, Fab made by enzymatic digestion of the IgG) VH: EVQLLESGGGLVQPGGSLRLSCAASGFTFSIYRMQWVRQAPGKGLEWVSGISPSGGTTWYADSVKGRFTISRDNSKNTLYLQMNSLRAEDTAVYYCARWSGGSGYAFDIWGQGTMVTVSS VL: DIQMTQSPLSLSASVGDRVTITCQASRDIRNYLNWYQQKPGKAPKLLIYDASSLQTGVPSRFGGSGSGTDFSFTIGSLQPEDIATYYCQQFDSLPHTFGQGTKLEIK

From US20090130105A1 (Biogen, published 2009)
